Measured values as given in US10925971B2, “Methods of treating PRLR positive breast cancer” (Regeneron Pharmaceuticals, Inc., priority 2016, dated 2021).
Read-outs that look alike come from different tables or passages of the source.

B1: H1H6782P: fully human anti-PRLR antibody, non-blocking; HCVR/LCVR SEQ ID NOs 66/74 (antibody, V domains shown)
VH: EVQLVESGGGLVQPGRSLRLSCAASGFTFDDYAMHWVRQAPGKGLEWVSGIIWNSGHIGYGDSVKGRFTISRDNAKKSLYLQMNSLRAEDTALYYCARDSGRYQSYFDYWGQGTLVTVSS
VL: DIQMTQSPSTLSASVGDRVTITCRASHIISSWLAWYQQKPGKAPKVLIFKASSLESGVPSRFSGSGSGTEFTLTISSLQPDDFATYYCQQYNTYSRTFGQGTKVEIK
B2: H1H6774P: fully human anti-PRLR antibody, human IgG1 Fc; HCVR/LCVR SEQ ID NOs 34/42 (antibody, V domains shown)
VH: EVQLVESGGGLAQPGGSLRLSCVASGFTFSTYWMSWVRQAPGKGLDWVGNIKQDGSEQNYVDSVRGRFTISRDNAKNSLFLQMNSLRAEDTGVYYCATLLTKGDYWGQGTLVTVSS
VL: DIQMTQSPSSLSASVGDSVTITCRASQDISNYLDWFQQKPGKAPKSLIYAASILQGGVPSRFSGSGYGTDFTLTISSLQPEDFATYYCRQYKTYPFTFGPGTKVDIK
B3: H1H6795P: fully human anti-PRLR antibody, human IgG1 Fc; HCVR/LCVR SEQ ID NOs 162/170 (antibody, V domains shown)
VH: QVQLVQSGAEVKKPGASVKVSCKASGYTFGTSGITWVRQAPGQGLEWMGWSSAYNGKTDYAQKFQDRVTMTTDTSTTTGYMEMRSLTSDDTAVYYCTTVVRRPFDFWGQGTLVTVSS
VL: DIQMTQSPSSLSASVGDRVTITCRASQDINNFLAWFQQKPGKAPKSLIYAASSLQSGVPSKFSGGGSGTDFALTISSLQPEDFATYYCQQYSSYPITFGQGTRLEIK
B4: H1H6958N2-DM1: anti-PRLR antibody H1H6958N2 conjugated to the maytansinoid DM1 through an SMCC linker (conjugate)
VH: QVQLVESGGGVVQPGRSLRLSCGASGFTFRNYGMQWVRQGPGKGLEWVTLISFDGNDKYYADSVKGRFTISRDNSKNTLFLQMNSLRTEDTAVYYCARGGDFDYWGQGTLVTVSS
VL: DIQMTQSPSSLSASVGDRVTITCRASQDIRKDLGWYQQKPGKAPKRLIYAASSLHSGVPSRFSGSGSGTEFTLTISSLQPEDFATYYCLQHNSYPMYTFGQGTKLEIK
B5: H1H6958N2: anti-PRLR antibody, receptor blocking, human IgG1 Fc form of H2M6958N2 of Table 1; HCVR/LCVR SEQ ID NOs 290/298 (antibody, V domains shown)
VH: B4 VH
VL: B4 VL
B6: H1H6765P: fully human anti-PRLR antibody, human IgG1 Fc; HCVR/LCVR SEQ ID NOs 18/26 (antibody, V domains shown)
VH: EVQLVESGGGVVRPGGSLRLSCVGSGFSFDDHGMNWVRQGPGKGLEWVSGFNWNGGSTNYAESVKGRFTISRDNARNSLFLQMNSLRAEDTALYYCVRGRSGWFNDAFDVWGPGTMVTVSS
VL: EIVLTQSPGTLSLSPGERATLSCRASQTINSNYLAWYRQKPGQTPRLLIYGTSSRATGIPDRFSGSGSGTDFSLTISRLEPEDFAVFYCQQYAGLPTFGPGTKVDIK
B7: H1H6797P: fully human anti-PRLR antibody, human IgG1 Fc; HCVR/LCVR SEQ ID NOs 178/186 (antibody, V domains shown)
VH: EVQLVESGGGLVQPGGSLRLSCIVSGFTFSGSWMSWVRQLPGKGLEWVANIKEDGSDSYYVDSVEGRFTISRDNAKSSLYLQMNSLRVDDTAVYFCARARTVPLHYWGQGTLVTVSS
VL: DIQMTQSPSTLSASVGDRVTITCRASQSINIWLAWYQQKPGKAPKLLIYRASYLESGVPSSFAGGGSGTEFTLTISSLQPDDFGTYYCQHYNSYPFTFGQGTKLEIK

Legend:
[1] = tested on: T47D#11 tumors; assay type: in vivo, CB17 SCID mice; settings: for Average Tumor Growth Inhibition (%) / Final Tumor size mm^3 (mean ± SEM): T47D#11 tumors, SCID mice, Day 66
From the text: Briefly, 20×10^6 MCF7/PRLR cells (ATCC HTB-22 transfected with full length hPRLR as previously described) were implanted subcutaneously into the left mammary fat pad of female NCr nude mice. In other studies, 10×10^6 PC3/PRLR (ATCC CRL-1435 transfected with full length hPRLR as previously described) were implanted subcutaneously into the left flank of male SCID mice. Additionally, 10×10^6 parental T47D (ATCC HTB-133) or 7.5×10^10 T47D #11 cells (ATCC HTB-133 serially passaged in vivo as described below) were subcutaneously implanted into the left flank of female CB17 SCID mice. All mice were obtained from Taconic (Hudson, N.Y.). Each bolus of cells was supplemented with a 90-day estrogen release pellet (1.7 mg/pellet; Innovative Research America, Sarasota Fla.). […] Control reagents included PBS vehicle, free methyl-disulfide DM1 (DM1-SMe) and isotype Control 1-DM1.
In multi-dose studies, mice were dosed once a week for a total of three weeks with tumor volumes and body weights being monitored twice weekly throughout the study. Test ADCs were dosed at 5 and/or 15 mg/kg in the multi-dose studies. In single-dose studies, mice received a single dose of test ADC, and tumor volumes and body weights were monitored twice weekly throughout the study. Test ADCs were dosed at 1, 2.5, 5, and 15 mg/kg in the single-dose studies. Average tumor size as well as tumor growth inhibition relative to the vehicle treated group were calculated for each group. Tumors were measured with calipers twice a week until the average size of the vehicle group reached 1000 mm^3. Tumor size was calculated using the formula (length×width^2)/2. Tumor growth inhibition was calculated according to the following formula: (1−((Tfinal−Tinitial)/(Cfinal−Cinitial)))*100, where T (treated group) and C (control group) represent the mean tumor mass on the day the vehicle group reached 1000 mm^3. […] Results are summarized in Tables 21-25 (multi-dose) and Table 26 (single dose). (NT=not tested in the particular experiment shown).

[2] = tested on: human PRLR in HEK293/hPRLR/STAT5-Luc cells; test: STAT5-Luc reporter assay, blocking of PRL-mediated receptor activation (5 nM PRL); assay type: cell-based; settings: read-out: IC50 of Blocking 5 nM PRL; 5 nM constant PRL, 6 hr at 37° C.
From the text: The ability of anti-PRLR antibodies to block prolactin (PRL)-mediated receptor activation was examined in a luciferase-based reporter assay. The endocrine hormone PRL binds to the extracellular domain of its cognate receptor PRLR, triggering rapid homodimerization and activating several downstream signaling cascades.
In this example, an engineered cell line was used to determine the ability of anti-PRLR antibodies to block ligand activation of the PRLR receptor. Briefly, HEK293/hPRLR/STAT5-Luc cell lines with stable incorporation of a human PRLR expression cassette and the STAT5-dependent luciferase reporter were generated via sequential rounds of Lipofectamine® 2000-mediated transfection (LifeTechnologies, Carlsbad, Calif.). Cells were selected for at least two weeks in the presence of 500 μg/mL G418 (hPRLR) and 100 μg/mL hygromycin B (STAT5-Luc). The STAT5-Luc assay utilized 2×10^5 HEK293/hPRLR/STAT5-Luc cells seeded in complete growth medium on PDL-coated 96 well plates grown overnight at 37° C., 5% CO2. To generate antibody inhibition curves, cells were incubated (6 hr at 37° C.) with serially diluted anti-human PRLR antibodies (100 nM to 24 pM) in the presence of 5 nM constant PRL before recording signal. PRL dose response curves were generated by the addition of serially diluted PRL (100 nM to 24 pM) to cells and recording signal after a 6 hr (37° C.) incubation in the absence of antibodies. The ability of the antibodies to activate PRLR in the absence of ligand was also assessed.
Luciferase activity was measured with ONE-Glo™ reagent (Promega, Madison, Wis.). Relative light units (RLUs) were measured on a Victor luminometer (Perkin Elmer, Shelton, Conn.). EC50/IC50 values were determined from a four-parameter logistic equation over an 8-point response curve using GraphPad Prism. Percent blocking and percent activation are reported for the highest antibody dose.

[3] = tested on: MCF7/PRLR tumors; test: MCF7/PRLR breast tumor xenograft, tumor volume (Example 13); assay type: in vivo, NCr nude mice
Procedure: After MCF7 or MCF7/PRLR tumors reached an average volume of ˜150-200 mm^3 (14-16 days post implantation), mice were randomized into treatment groups (n=8-9 mice/group) and received a single dose or three once-weekly doses of H1H6958N2-DM1, control ADC, or vehicle control, administered systemically by intravenous tail-vein injection. Tumor size and body weight were measured in vivo twice per week throughout the duration of the study.
The T47Dv11 model was used to assess the activity of H1H6958N2-DM1 in a model with significant levels of endogenous PRLR. […] Initially, 10×10^6 parental T47D cells were implanted subcutaneously (SC) into the left flank of female C.B.-17 SCID mice (Taconic, Hudson N.Y.). Tumors were supplemented with a 90-day release 1.7 mg estrogen pellet (Innovative Research America). Where T47D tumors were observed, they were excised and cut into 3 mm fragments and subsequently implanted into the left flank of separate female C.B.-17 SCID mice. Subsequent passaging was performed until a large tumor was disaggregated into a single cell suspension. The cells (named T47Dv11) from this tumor were then cultured in vitro and expanded. […] For efficacy studies, mice were implanted with 7.5×10^6 T47Dv11 cells into the left flank of female C.B.-17 SCID mice supplemented with a 90-day release 0.72 mg/pellet estrogen pellet. For MCF7 and MCF7/PRLR tumor xenografts, 2×10^7 MCF7/PRLR cells were implanted SC into the left mammary fat pad of female NCr nude mice (7-8 weeks old) supplemented with 90-day release 0.72 mg/pellet estrogen pellets. Tumors were measured with calipers twice a week for the duration of each study. Tumor volume was calculated using the formula TV=(length×width^2)/2.

Molecule | Average Tumor Growth Inhibition (%) ([1]; multi-dose 15 mg/kg) | Final Tumor size mm^3 (mean ± SEM) ([1]; multi-dose 15 mg/kg) [mm^3] | IC50 [2] [nM] | further results
B1 | −29 | 1537 ± 111 | – | –
B2 | – | – | > 100 | –
B3 | – | – | > 100 | –
B4 | 112 | 44 ± 5 | – | antitumor efficacy ([3]; single dose 10 and 15 mg/kg): eradication of the tumors; antitumor efficacy ([3]; single dose at 2.5-15 mg/kg): significant antitumor efficacy observed at all doses; antitumor efficacy ([3]; three once-weekly doses of 5 and 15 mg/kg): tumor eradication; Average Tumor Growth Inhibition (%) ([1]; multi-dose 5 mg/kg): 102%; Final Tumor size mm^3 (mean ± SEM) ([1]; multi-dose 5 mg/kg): 168 ± 19 mm^3; T47D #11 tumor growth ([1]; repeat dosing 5 and 15 mg/kg): potently inhibited tumor growth
B5 | −3 | 1259 ± 122 | – | antitumor efficacy of controls ([3]; MCF7/PRLR model, dose not stated): failed to induce any inhibition of tumor growth
B6 | −3 | 1278 ± 164 | – | –
B7 | – | – | > 100 | –
